Data as given in US20040151713.

Legend:
[1] = molecular target: T1, GST-Cdc25C (C terminal peptide: 195-260aa), P30307
T1 chain: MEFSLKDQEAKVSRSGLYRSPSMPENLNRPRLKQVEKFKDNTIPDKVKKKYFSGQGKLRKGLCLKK

[2] = molecular target: GST-fusion recombinant protein containing human Weel (full-length protein), P30291
[3] = molecular target: GST-Cdc25C S216A [GST: P08515]
[4] = molecular target: T2, GST-Cdc25B (C terminal peptide: 281-381aa), P30305
T2 chain: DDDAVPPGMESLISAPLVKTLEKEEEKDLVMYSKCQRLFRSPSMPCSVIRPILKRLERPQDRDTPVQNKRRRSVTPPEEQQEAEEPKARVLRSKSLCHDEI

[5] = molecular target: GST-Cdc25B S309A [GST: P08515]

Sequence of GST-fusion recombinant protein containing human Weel (full-length protein), P30291 (P30291 whole entry, looked up, the tested form may be a part): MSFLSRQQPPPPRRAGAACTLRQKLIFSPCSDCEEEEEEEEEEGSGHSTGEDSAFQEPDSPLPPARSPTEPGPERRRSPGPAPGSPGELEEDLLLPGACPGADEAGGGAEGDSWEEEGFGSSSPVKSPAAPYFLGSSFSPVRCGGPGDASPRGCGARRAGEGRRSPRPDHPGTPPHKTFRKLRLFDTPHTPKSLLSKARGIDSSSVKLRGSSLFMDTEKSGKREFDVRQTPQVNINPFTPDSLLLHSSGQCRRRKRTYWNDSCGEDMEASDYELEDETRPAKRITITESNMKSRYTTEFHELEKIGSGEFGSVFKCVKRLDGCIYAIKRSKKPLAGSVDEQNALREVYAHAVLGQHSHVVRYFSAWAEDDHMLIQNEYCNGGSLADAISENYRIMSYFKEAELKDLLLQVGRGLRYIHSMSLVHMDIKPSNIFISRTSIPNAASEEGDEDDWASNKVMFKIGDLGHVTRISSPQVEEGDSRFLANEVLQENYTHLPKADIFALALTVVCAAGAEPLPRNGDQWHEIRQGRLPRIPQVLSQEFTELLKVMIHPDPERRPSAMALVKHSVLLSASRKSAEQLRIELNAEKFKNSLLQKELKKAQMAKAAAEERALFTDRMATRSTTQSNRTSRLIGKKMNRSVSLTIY

B1: hCdr2 wild-type (wt) recombinant protein with c-Myc tag (protein)
chain: MSSGAKEGGGGSPAYHLPHPHPHPPQHAQYVGPYRLEKTLGKGQTGLVKLGVHCITGQKVAIKIVNREKLSESVLMKVEREIAILKLIEHPHVLKLHDVYENKKYLYLVLEHVSGGELFDYLVKKGRLTPKEARKFFRQIVVCAGLCHSYSICHRDLKPENLLLDEKNNIRIADFGMASLQVGDSLLETSCGSPHYACPEVIKGEKYDGRRADMWSCGVILFALLVGALPFDDDNLRQLLEKVKRGVFHMPHFIPPDCQSLLRGMIEVEPEKRLSLEQIQKHPWYLGGKHEPDPCLEPAPGRRVAMRSLPSNGELDPDVLESMASLGCFRDRERLHRELRSEEENQEKMIYYLLLDRKERYPSCEDQDLPPRNDVDPPRKRVDSPMLSRHGKRRPERKSMEVLSITDAGGGGSPVPTRRALEMAQHSQRSRSVSGASTGLSSSPLSSPRSPVFSFSPEPGAGDEARGGGSPTSKTQTLPGPPGSPRSSGGTPLHSPLHTPRASPTGTPGTTPPPSPGGGVGGAAWRSRLNSIRNSFLGSPRFHRRKMQVPTAEEMSSLTPESSPELAKRSWFGNFISLDKEEQIFLVLKDKPLSSIKADIVHAFLSIPSLSHSVLSQTSFRAEYKASGGPSVFQKPVRFQVDISSSEGPEPSPRRDGSGGGGIYSVTFTLISGPSRRFKRVVETIQAQLLSTHDQPSVQALADEKNGAQTRPAGAPPRSLQPPPGRPDPELSSSPRRGPPKDKKLLATNGTPLP
- in vitro kinase assay (32P autoradiography) [1]: the hCdr2 wt protein phosphorylated GST-Cdc25C (C terminal peptide: 195-260aa)
- in vitro kinase assay (32P autoradiography) [2]: the human Weel could not be phosphorylated
- in vitro kinase assay (32P autoradiography) [3]: When GST-Cdc25C S216A was used as a substrate, phosphorylation of the hCdr2 wt protein did not occur
- in vitro kinase assay (32P autoradiography) [4]: the hCdr2 wt protein severely phosphorylated the GST-Cdc25B (C terminal peptide: 282-381aa)
- in vitro kinase assay (32P autoradiography) [5]: When GST-Cdc25B S309A was used as a substrate, even the hCdr2 wt protein did not provide phosphorylation action

B2: hCdr2 K59A kinase-dead mutated protein with c-Myc tag (protein)
chain: MSSGAKEGGGGSPAYHLPHPHPHPPQHAQYVGPYRLEKTLGKGQTGLVKLGVHCITGQAVAIKIVNREKLSESVLMKVEREIAILKLIEHPHVLKLHDVYENKKYLYLVLEHVSGGELFDYLVKKGRLTPKEARKFFRQIVVCAGLCHSYSICHRDLKPENLLLDEKNNIRIADFGMASLQVGDSLLETSCGSPHYACPEVIKGEKYDGRRADMWSCGVILFALLVGALPFDDDNLRQLLEKVKRGVFHMPHFIPPDCQSLLRGMIEVEPEKRLSLEQIQKHPWYLGGKHEPDPCLEPAPGRRVAMRSLPSNGELDPDVLESMASLGCFRDRERLHRELRSEEENQEKMIYYLLLDRKERYPSCEDQDLPPRNDVDPPRKRVDSPMLSRHGKRRPERKSMEVLSITDAGGGGSPVPTRRALEMAQHSQRSRSVSGASTGLSSSPLSSPRSPVFSFSPEPGAGDEARGGGSPTSKTQTLPGPPGSPRSSGGTPLHSPLHTPRASPTGTPGTTPPPSPGGGVGGAAWRSRLNSIRNSFLGSPRFHRRKMQVPTAEEMSSLTPESSPELAKRSWFGNFISLDKEEQIFLVLKDKPLSSIKADIVHAFLSIPSLSHSVLSQTSFRAEYKASGGPSVFQKPVRFQVDISSSEGPEPSPRRDGSGGGGIYSVTFTLISGPSRRFKRVVETIQAQLLSTHDQPSVQALADEKNGAQTRPAGAPPRSLQPPPGRPDPELSSSPRRGPPKDKKLLATNGTPLP
- in vitro kinase assay (32P autoradiography) [1]: but failed to phosphorylate the hCdr2 K59A protein
- in vitro kinase assay (32P autoradiography) [4]: the weak phosphorylating action exhibited by the mock and hCdr2 K59A
